Consider nine substances from publication PMC6544907.

As a reminder, the Kd is the equilibrium constant for the complex coming apart. A high value points to lower affinity. One may read the koff as a measure of how fast the partners let go of each other. A low value points to a long-lived complex. As usually defined, the kon is the second-order rate constant of association. Read a high kon as fast association. As usually defined, the stoichiometry N is the number of molecules, sites or subunits per partner or assembly.

Assay [1] addresses PAM on cells of GAS strain SS1574 (Streptococcus pyogenes (endogenous in strain SS1574)) (UniProt P49054). Kind of assay: flow cytometry on cells. Background: A flow cytometer gives signals particle by particle.
The target of assay [2] is human plasma plasminogen (human). Kind of assay: SPR.
The target of assay [3] is PAM_(SS1448), recombinant full-length PAM of GAS strain SS1448 (emm86.2) (Streptococcus pyogenes (GAS) strain SS1448). Nature of the assay: AUC.
In assay [4] the target is PAM_(NS223), recombinant full-length PAM of GAS strain NS223 (emm91) (Streptococcus pyogenes (GAS) strain NS223). Kind of assay: AUC.
Assay [5] concerns the target PAM_(SS1574), recombinant full-length PAM of GAS strain SS1574 (emm224) (Streptococcus pyogenes (GAS) strain SS1574). Nature of the assay: AUC.
Assay [6] has as its target PAM_(SS1572), recombinant full-length PAM of GAS strain SS1572 (emm223) (Streptococcus pyogenes (GAS) strain SS1572). Nature of the assay: AUC.
Assay [7] deals with PAM_(NS88.2), recombinant full-length PAM of GAS strain NS88.2 (emm98.1) (Streptococcus pyogenes (GAS) strain NS88.2). Nature of the assay: AUC.
Assay [8] has as its target PAM_(NS455), recombinant full-length PAM of GAS strain NS455 (emm52) (Streptococcus pyogenes (GAS) strain NS455). Kind of assay: AUC.

For “human plasma plasminogen (natural protein)”, the amount of hPg bound, fold of strain AP53 in assay [1] is less than 2 fold.
“PAM_(AP53), recombinant full-length PAM of GAS strain AP53 (emm53) (natural protein)”: in assay [2], the equilibrium dissociation constant (Kd) worked out at 1.6 nM, the koff came out at 0.00056 s⁻¹ and the association rate constant (kon) was 340000 M⁻¹ s⁻¹.
Turning to “PAM_(SS1448), recombinant full-length PAM of GAS strain SS1448 (emm86.2) (natural protein)”, the stoichiometry N in assay [3] came to 2. Besides, in assay [2], the Kd amounted to 28 nM, the koff came out at 0.001 s⁻¹ and the association rate constant (kon) is 36000 M⁻¹ s⁻¹.
“PAM_(NS223), recombinant full-length PAM of GAS strain NS223 (emm91) (natural protein)”: in assay [4], the stoichiometry N was 2. In assay [2], this substance came in with a Kd of 1.4 nM, an off-rate constant (koff) of 0.00033 s⁻¹ and an association rate constant (kon) of 240000 M⁻¹ s⁻¹.
“PAM_(AP53_short) (residues 42-175 of PAM_(AP53)) (domain or fragment)” displayed a koff in assay [2] of 0.00077 s⁻¹.
As for “PAM_(SS1574), recombinant full-length PAM of GAS strain SS1574 (emm224) (natural protein)”, the stoichiometry N in assay [5] stood at 2. In assay [2], this substance showed a Kd of 1.1 nM and a koff of 0.00011 s⁻¹.
Regarding “PAM_(SS1572), recombinant full-length PAM of GAS strain SS1572 (emm223) (natural protein)”, the stoichiometry N in assay [6] worked out at 2. In assay [2], this substance showed a Kd of 4.9 nM, a koff of 0.00059 s⁻¹ and an association rate constant (kon) of 120000 M⁻¹ s⁻¹.
Turning to “PAM_(NS88.2), recombinant full-length PAM of GAS strain NS88.2 (emm98.1) (natural protein)”, the stoichiometry N in assay [7] was determined as 2. In assay [2], this substance came in with a Kd of 1.2 nM and an off-rate constant (koff) of 0.00023 s⁻¹.
For “PAM_(NS455), recombinant full-length PAM of GAS strain NS455 (emm52) (natural protein)”, the stoichiometry N in assay [8] worked out at 2. Further, in assay [2], the off-rate (koff) was 0.00017 s⁻¹ and the on-rate constant (kon) is 540000 M⁻¹ s⁻¹.
